B1: Casein kinase I isoform alpha (Oryctolagus cuniculus (Rabbit)), P67828 (parent)
chain: MASSSGSKAEFIVGGKYKLVRKIGSGSFGDIYLAINITNGEEVAVKLESQKARHPQLLYESKLYKILQGGVGIPHIRWYGQEKDYNVLVMDLLGPSLEDLFNFCSRRFTMKTVLMLADQMISRIEYVHTKNFIHRDIKPDNFLMGIGRHCNKLFLIDFGLAKKYRDNRTRQHIPYREDKNLTGTARYASINAHLGIEQSRRDDMESLGYVLMYFNRTSLPWQGLKAATKKQKYEKISEKKMSTPVEVLCKGFPAEFAMYLNYCRGLRFEEAPDYMYLRQLFRILFRTLNHQYDYTFDWTMLKQKAAQQAASSSGQGQQAQTPTGF
partner: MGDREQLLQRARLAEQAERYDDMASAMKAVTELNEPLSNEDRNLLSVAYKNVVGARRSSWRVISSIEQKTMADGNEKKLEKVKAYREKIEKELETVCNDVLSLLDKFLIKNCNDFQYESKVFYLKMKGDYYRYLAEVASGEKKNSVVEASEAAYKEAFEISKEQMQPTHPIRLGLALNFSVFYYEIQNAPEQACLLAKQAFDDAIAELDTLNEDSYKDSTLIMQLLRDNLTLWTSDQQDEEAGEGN

Variants of: B1
Details: with 1433f_human YWHAH

effect of a mutation on the interaction	Variant
decreasing interaction	S218A

Variants of: B1
Details: with 1433f_human YWHAH
Remark: another data set of the same source

effect of a mutation on the interaction	Variant
disrupting interaction	S218A
disrupting interaction	S242A
